The results in this text go back to publication doi:10.1101/641308.

The target in the assay is OcwA (Outer cell-wall protein A), nonaheme cytochrome TherJR_2595 from Thermincola potens JR (Thermincola potens JR). Put plainly: SEC. (SEC sorts molecules by how far they enter the pores of the column.)

“OcwA (Outer cell-wall protein A), nonaheme cytochrome TherJR_2595 from Thermincola potens JR (natural protein)” had a stoichiometry N of 2.

By stoichiometry N is commonly meant the number of molecules, sites or subunits per partner or assembly.
